The labels stand for the following.
T1: human C1s (human, UniProt P09871 16-688)
T1 construct: also called hC1s; serum-derived human C1s (CompTech)
T1 sequence: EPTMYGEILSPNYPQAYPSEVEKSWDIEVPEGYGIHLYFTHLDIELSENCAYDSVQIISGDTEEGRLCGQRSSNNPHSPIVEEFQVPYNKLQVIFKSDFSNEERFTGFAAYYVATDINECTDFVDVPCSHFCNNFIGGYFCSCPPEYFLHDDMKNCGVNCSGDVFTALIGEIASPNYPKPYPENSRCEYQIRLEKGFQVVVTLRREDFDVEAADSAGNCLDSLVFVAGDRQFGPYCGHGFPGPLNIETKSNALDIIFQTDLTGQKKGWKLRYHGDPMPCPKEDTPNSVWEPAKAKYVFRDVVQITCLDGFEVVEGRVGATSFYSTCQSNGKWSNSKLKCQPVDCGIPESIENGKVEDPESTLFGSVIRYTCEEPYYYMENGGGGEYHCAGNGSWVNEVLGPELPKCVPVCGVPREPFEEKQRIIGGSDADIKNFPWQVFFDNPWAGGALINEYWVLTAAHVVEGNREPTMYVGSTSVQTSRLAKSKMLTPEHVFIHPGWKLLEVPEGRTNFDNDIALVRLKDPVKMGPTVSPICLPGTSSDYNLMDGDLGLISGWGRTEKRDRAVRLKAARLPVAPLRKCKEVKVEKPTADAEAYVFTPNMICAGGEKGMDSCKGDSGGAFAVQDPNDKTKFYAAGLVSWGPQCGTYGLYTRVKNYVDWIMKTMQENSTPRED

T2: human C1s (human, UniProt P09871 16-688)
T2 construct: Analyte in the Biacore assays; also called hC1s; serum-derived human C1s (CompTech)
T2 sequence: T1 sequence

B1: C1_IPN009VH2-SG4GK/IPN93L0021-SK1 (antibody, human IgG4 S228P, kappa, name in Kabat numbering)
heavy: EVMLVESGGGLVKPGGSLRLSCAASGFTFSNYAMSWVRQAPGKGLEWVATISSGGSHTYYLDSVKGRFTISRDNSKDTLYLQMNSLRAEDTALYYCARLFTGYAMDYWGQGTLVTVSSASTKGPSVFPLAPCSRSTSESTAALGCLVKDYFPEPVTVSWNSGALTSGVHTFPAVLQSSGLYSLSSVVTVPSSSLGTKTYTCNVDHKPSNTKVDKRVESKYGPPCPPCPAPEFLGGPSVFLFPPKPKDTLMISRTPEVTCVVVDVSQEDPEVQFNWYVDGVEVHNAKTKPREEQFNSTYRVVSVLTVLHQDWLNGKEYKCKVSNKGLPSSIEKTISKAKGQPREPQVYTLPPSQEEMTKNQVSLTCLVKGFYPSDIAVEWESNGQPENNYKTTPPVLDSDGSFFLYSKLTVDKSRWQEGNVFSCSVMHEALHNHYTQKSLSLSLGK
light: QIVLTQSPATLSLSPGERATLSCTASSSVSSSYLHWYQQKPGKAPKLWIYSTSNLASGVPSRFSGSGSGTDYTLTISSLQPEDFATYYCHQYHRLPPITFGQGTKLEIKRTVAAPSVFIFPPSDEQLKSGTASVVCLLNNFYPREAKVQWKVDNALQSGNSQESVTEQDSKDSTYSLSSTLTLSKADYEKHKVYACEVTHQGLSSPVTKSFNRGEC
notes: also called IPN009VH2/IPN93L0021
B2: C1_IPN009VH2-SG4GK/IPN93L0023-SK1 (antibody, human IgG4 S228P, kappa, name in Kabat numbering)
heavy: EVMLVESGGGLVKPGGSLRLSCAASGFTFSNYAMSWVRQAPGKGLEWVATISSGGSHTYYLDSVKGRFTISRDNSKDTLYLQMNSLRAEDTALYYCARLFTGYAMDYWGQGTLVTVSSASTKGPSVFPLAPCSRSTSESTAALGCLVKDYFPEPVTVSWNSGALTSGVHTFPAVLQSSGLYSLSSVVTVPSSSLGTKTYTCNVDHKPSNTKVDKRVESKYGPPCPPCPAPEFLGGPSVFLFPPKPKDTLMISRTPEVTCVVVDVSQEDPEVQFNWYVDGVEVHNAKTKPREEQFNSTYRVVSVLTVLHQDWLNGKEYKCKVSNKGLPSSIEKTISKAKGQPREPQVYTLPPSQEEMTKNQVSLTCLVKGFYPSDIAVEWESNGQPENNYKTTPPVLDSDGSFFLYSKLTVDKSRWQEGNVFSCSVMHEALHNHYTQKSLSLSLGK
light: B1 light with H93Y, L95H
notes: also called IPN009VH2/IPN93L0023
B3: C1_IPN009VH2-SG4GK/IPN93L0024-SK1 (antibody, human IgG4 S228P, kappa)
heavy: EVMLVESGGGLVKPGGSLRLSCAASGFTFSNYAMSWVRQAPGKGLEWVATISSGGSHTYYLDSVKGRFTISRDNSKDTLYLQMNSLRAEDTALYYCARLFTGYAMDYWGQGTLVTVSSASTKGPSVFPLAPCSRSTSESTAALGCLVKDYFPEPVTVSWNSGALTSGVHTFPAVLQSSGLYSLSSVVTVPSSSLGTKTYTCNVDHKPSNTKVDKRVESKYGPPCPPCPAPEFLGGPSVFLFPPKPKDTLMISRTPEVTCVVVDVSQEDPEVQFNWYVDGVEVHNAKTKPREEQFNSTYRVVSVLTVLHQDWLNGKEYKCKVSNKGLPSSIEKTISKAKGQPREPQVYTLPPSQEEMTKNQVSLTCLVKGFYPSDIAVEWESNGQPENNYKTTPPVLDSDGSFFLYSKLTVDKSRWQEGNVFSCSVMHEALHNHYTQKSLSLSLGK
light: B1 light with H93Y, P96H
notes: VL = IPN009VK3 with P95H (Kabat); also called IPN009VH2/IPN93L0024
B4: C1_IPN92H0026-SG4GK/IPN009VK3-SK1 (antibody, human IgG4 S228P, kappa, name in Kabat numbering, V domains shown)
VH: EVMLVESGGGLVKPGGSLRLSCAASGFTFSNYAMSWVRQAPGKGLEWVATISSGGSHTYYLDSVKHRFTISRDNSKDTLYLQMNSLRAEDTALYYCARLFTGYAMDYWGQGTLVTVSS
VL: QIVLTQSPATLSLSPGERATLSCTASSSVSSSYLHWYQQKPGKAPKLWIYSTSNLASGVPSRFSGSGSGTDYTLTISSLQPEDFATYYCHQYYRLPPITFGQGTKLEIKR
notes: also called IPN92H0026/IPN009VK3
B5: IPN92H0288/IPN93L0211-SG136 (antibody, human IgG1, kappa)
heavy: EVMLVESGGGLVKPGGSLRLSCAASGFTFSNYAMSWVRQAPGKGLEWVATISSGGSHTYELDSVDGRFTISRDNSKDTLYLQMNSLRAEDTALYYCARLFTKHAMDYWGQGTLVTVSSASTKGPSVFPLAPSSKSTSGGTAALGCLVKDYFPEPVTVSWNSGALTSGVHTFPAVLQSSGLYSLSSVVTVPSSSLGTQTYICNVNHKPSNTKVDKKVEPKSCDKTHTCPPCPAPELRRGPSVFLFPPKPKDTLMISRTPEVTCVVVDVSHEDPEVKFNWYVDGVEVHNAKTKPREEQYNSTYRVVSVLTVLHQDWLNGKEYKCKVSNKGLPSSIEKTISKAKGQPREPQVYTLPPSREEMTKNQVSLTCLVKGFYPSDIAVEWESNGQPENNYKTTPPVLDSDGSFFLYSKLTVDKSRWQQGNVFSCSVMHEALHNHYTQKSLSLSP
light: B1 light with S28E, S31E, H93Y, P96H, S173C
notes: also called IPN92H0288/IPN93L0211 (lot PPU2049)
B6: IPN92H0288/IPN93L0058-SG136 (antibody, human IgG1, kappa)
heavy: B5 heavy
light: B1 light with S28E, H93Y, P96H, S173C
notes: also called IPN92H0288/IPN93L0058 (lot PPU2050)
B7: IPN92H0033/IPN93L0024-SG136 (antibody, human IgG1, kappa)
heavy: B5 heavy with E60Y, D65K, K102G
light: B1 light with H93Y, P96H, S173C
notes: also called IPN92H0033/IPN93L0024 (lot PPU2046)
B8: IPN92H0307/IPN93L0058-SG136 (antibody, human IgG1, kappa)
heavy: B5 heavy with T28E, S30E
light: B1 light with S28E, H93Y, P96H, S173C
notes: also called IPN92H0307/IPN93L0058 (lot PPU2051)

Changes are numbered by the printed parent chain. Names may count otherwise. Some results are limits rather than exact numbers.

This is an account of results in patent US20210032365A1 (Chugai, published 2021).

The target of one experiment is T1, human C1s. In words: SPR, Ab captured; pH 7.4, 1.2 mM Ca. The protocol:
(§1) All variants were transiently expressed and purified by the method described above. The binding affinity of each histidine-substituted variant at pH 7.4 and pH 5.8 was determined at 37 degrees C. using Biacore T200 instrument (GE Healthcare). Recombinant Protein A/G (Pierce) was immobilized onto all flow cells of a CM4 sensor chip using an amine coupling kit (GE Healthcare). Antibodies and analytes were prepared in 7(+) buffer (20 mM ACES, 150 mM NaCl, 1.2 mM CaCl2, 0.05% Tween 20, 0.005% NaN3, pH 7.4), 5(+) buffer (20 mM ACES, 150 mM NaCl, 1.2 mM CaCl2, 0.05% Tween 20, 0.005% NaN3, pH 5.8), or 5(−) buffer (20 mM ACES, 150 mM NaCl, 3 micro M CaCl2, 0.05% Tween 20, 0.005% NaN3, pH 5.8). Each antibody was captured onto the sensor surface by protein A/G. Antibody capture levels were aimed at 200 resonance unit (RU). Serum-derived human C1s (CompTech) or recombinant C1s prepared in EXAMPLE 1 was injected at 50 nM, followed by dissociation. The sensor surface was regenerated in each cycle with 10 mM Glycine-HCl, pH 1.5. […] The ratio of KD 5.8+ to KD 7.4+(“KD 5+/7+”) and that of KD 5.8− to KD 7.4+(“KD 5−/7+”) were calculated. When the KD 5+/7+ or KD 5−/7+ of a variant is larger than that of the parent antibody IPN009VH2-SG4GK/IPN009VK3-SK1, that variant is considered to be “pH”- or “pH and Ca”-dependent, respectively. When binding response in 5(+) buffer and/or in 5(−) buffer of a variant is much lower than that of IPN09VH2/IPN009VK3, that variant is also considered as “pH”- and/or “pH and Ca”-dependent. Therefore, such mutations are effective to generate “pH”- and/or “pH and Ca”-dependent antibody. To further enhance “pH” and/or “pH and Ca” dependency, a combination of histidine mutations was conducted. Antibodies with combinations of histidine mutations were evaluated using Biacore by the method described above.
For B1, the Kd came out at 2.68 nM, the koff turned out to be 0.000898 s⁻¹ and the kon was 335000 M⁻¹ s⁻¹.

In the case of B2, the Kd is 2.18 nM, the off-rate (koff) turned out to be 0.000725 s⁻¹ and the kon worked out at 332000 M⁻¹ s⁻¹.

In the case of B3, the off-rate constant (koff) was 0.000574 s⁻¹ and the on-rate constant (kon) amounted to 233000 M⁻¹ s⁻¹.

On to B4, for which the Kd is 0.549 nM, the koff is 0.000236 s⁻¹ and the kon worked out at 430000 M⁻¹ s⁻¹.

In the next experiment the target is T1, human C1s. In words: SPR, Ab captured; pH 5.8, 3 uM Ca. The method, then: as §1
On to B1, for which the Kd amounted to 9.54 nM and the off-rate constant (koff) is greater than 0.1 s⁻¹.

Take B2: the Kd came out at 13.8 nM, the dissociation rate constant (koff) was 0.092 s⁻¹ and the kon turned out to be 6.67e+06 M⁻¹ s⁻¹.

With B3, the dissociation rate constant (koff) turned out to be 0.132 s⁻¹ and the kon came out at 5.92e+06 M⁻¹ s⁻¹.

As to B4, the Kd is 2.58 nM, the off-rate (koff) came out at 0.00171 s⁻¹ and the kon turned out to be 665000 M⁻¹ s⁻¹.

For another experiment, the target named is T2, human C1s. In words: SPR; KD at pH 5.8 over KD at pH 7.4, both 1.2 mM Ca. The method, then:
The binding affinity of all histidine-substituted variants at pH 7.4 and pH 5.8 were determined at 37 degrees C. using Biacore T200 instrument (GE Healthcare). Recombinant Protein A/G (Pierce) was immobilized onto all flow cells of a CM4 sensor chip using amine coupling kit (GE Healthcare). Antibodies and analytes were prepared in 7(+) buffer (20 mM ACES, 150 mM NaCl, 1.2 mM CaCl2, 0.05% Tween 20, 0.005% NaN3, pH 7.4) or 5(+) buffer (20 mM ACES, 150 mM NaCl, 1.2 mM CaCl2), 0.05% Tween 20, 0.005% NaN3, pH 5.8). Each antibody was captured onto the sensor surface by protein A/G. Antibody capture levels were aimed at 200 resonance unit (RU). […] Sensor surface was regenerated each cycle with 10 mM Glycine-HCl pH 1.5. […] An additional dissociation phase at pH 5.8 was integrated immediately after the dissociation phase at pH 7.4. This dissociation rate in 5(+) buffer was determined by processing and fitting data using Scrubber 2.0 (BioLogic Software) curve fitting software. […]
In the case of B5, the “KD (5.8+)/KD (7.4+)” value came to 74.9.

Turning to B6, the “KD (5.8+)/KD (7.4+)” value was determined as 65.6.

Turning to B7, the “KD (5.8+)/KD (7.4+)” value came to 4.7.

Take B8: the “KD (5.8+)/KD (7.4+)” value is 28.4.

Another experiment addresses T1, human C1s. In words: SPR, Ab captured; pH 5.8, 1.2 mM Ca. The protocol:
as §1
B1: the Kd is 3.21 nM, the koff turned out to be 0.00203 s⁻¹ and the kon stood at 632000 M⁻¹ s⁻¹.

As for B2, the equilibrium dissociation constant (Kd) came out at 1.83 nM, the dissociation rate constant (koff) amounted to 0.00131 s⁻¹ and the kon came to 716000 M⁻¹ s⁻¹.

In the case of B3, the koff is 0.00149 s⁻¹ and the kon amounted to 384000 M⁻¹ s⁻¹.

As for B4, the Kd came to 0.222 nM, the off-rate constant (koff) worked out at 0.000162 s⁻¹ and the kon came to 729000 M⁻¹ s⁻¹.

For a further experiment, the target named is T2, human C1s. In words: SPR; koff (5.8+ of 775+): extra dissociation phase at pH 5.8 (1.2 mM Ca) right after the pH 7.4 dissociation, Scrubber fit. The method, then: (§2) The binding affinity of all histidine-substituted variants at pH 7.4 and pH 5.8 were determined at 37 degrees C. using Biacore T200 instrument (GE Healthcare). Recombinant Protein A/G (Pierce) was immobilized onto all flow cells of a CM4 sensor chip using amine coupling kit (GE Healthcare). Antibodies and analytes were prepared in 7(+) buffer (20 mM ACES, 150 mM NaCl, 1.2 mM CaCl2, 0.05% Tween 20, 0.005% NaN3, pH 7.4) or 5(+) buffer (20 mM ACES, 150 mM NaCl, 1.2 mM CaCl2), 0.05% Tween 20, 0.005% NaN3, pH 5.8). Each antibody was captured onto the sensor surface by protein A/G. Antibody capture levels were aimed at 200 resonance unit (RU). […] Sensor surface was regenerated each cycle with 10 mM Glycine-HCl pH 1.5. […] An additional dissociation phase at pH 5.8 was integrated immediately after the dissociation phase at pH 7.4. This dissociation rate in 5(+) buffer was determined by processing and fitting data using Scrubber 2.0 (BioLogic Software) curve fitting software.
As for B5, the koff worked out at 0.0282 s⁻¹.

B6 had a koff of 0.0158 s⁻¹.

B7 registered a koff of 0.0029 s⁻¹.

In turn, B8 gave an off-rate constant (koff) of 0.0151 s⁻¹.

A further experiment has as its target T1, human C1s. Kind of experiment: SPR; KD pH 5.8 1.2 mM Ca / KD pH 7.4 1.2 mM Ca. The method, then:
as §1
With B1, the “KD 5(+)/7(+)” value was found to be 1.2.

With B2, the “KD 5(+)/7(+)” value worked out at 0.8.

Regarding B3, the “KD 5(+)/7(+)” value came out at 1.6.

On to B4, for which the “KD 5(+)/7(+)” value worked out at 0.4.

The next experiment deals with T2, human C1s. Kind of experiment: SPR (Biacore T200, 37C), Ab captured on protein A/G, serum C1s 12.5 and 50 nM; pH 7.4, 1.2 mM Ca. The method, then:
as §2
In the case of B5, the off-rate constant (koff) stood at 0.00052 s⁻¹.

Molecule B6 gave a koff of 0.000408 s⁻¹.

Molecule B7 registered a koff of 0.000571 s⁻¹.

Consider B8, for which the off-rate constant (koff) came to 0.000523 s⁻¹.

In the next experiment the target is T1, human C1s. In words: SPR; KD pH 5.8 3 uM Ca / KD pH 7.4 1.2 mM Ca. The method, then:
as §1
For B1, the “KD 5(-)/7(+)” value was determined as 3.6.

As for B2, the “KD 5(-)/7(+)” value stood at 6.3.

Regarding B3, the “KD 5(-)/7(+)” value is 9.1.

With B4, the “KD 5(-)/7(+)” value worked out at 4.7.
